Results from article PMC12435897.

Legend:
Parameters in all cases: EC50 of β-arrestin-1 recruitment to the receptor (NanoBiT, HEK293T, agonist mode) (M (inferred, not given)) / EC50 of β-arrestin-1 recruitment to CCR3 (NanoBiT, HEK293T, agonist mode) (M (inferred, not given)) / EC50 of β-arrestin-1 recruitment to CCR5 (NanoBiT, HEK293T, agonist mode) (M (inferred, not given)): unit not given beside the values
[1] = biological target: WT CCR5 C-terminally fused to SmBiT (human) (UniProt P51681)
[2] = biological target: T1, human CCR10 on Ready-to-Assay Chem-1 cells (human) (UniProt P46092)
T1 sequence: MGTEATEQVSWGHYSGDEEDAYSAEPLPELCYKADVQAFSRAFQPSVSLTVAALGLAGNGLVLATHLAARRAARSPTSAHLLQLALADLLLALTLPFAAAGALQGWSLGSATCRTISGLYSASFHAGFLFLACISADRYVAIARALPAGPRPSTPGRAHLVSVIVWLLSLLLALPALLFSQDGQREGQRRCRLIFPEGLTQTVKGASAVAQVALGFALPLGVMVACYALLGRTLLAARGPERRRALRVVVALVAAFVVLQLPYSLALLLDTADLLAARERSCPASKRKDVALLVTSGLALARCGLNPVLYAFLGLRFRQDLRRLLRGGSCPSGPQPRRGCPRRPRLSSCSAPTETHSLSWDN

[3] = biological target: T2, human CCR3 on Ready-to-Assay Chem-1 cells (human) (UniProt P51677)
T2 sequence: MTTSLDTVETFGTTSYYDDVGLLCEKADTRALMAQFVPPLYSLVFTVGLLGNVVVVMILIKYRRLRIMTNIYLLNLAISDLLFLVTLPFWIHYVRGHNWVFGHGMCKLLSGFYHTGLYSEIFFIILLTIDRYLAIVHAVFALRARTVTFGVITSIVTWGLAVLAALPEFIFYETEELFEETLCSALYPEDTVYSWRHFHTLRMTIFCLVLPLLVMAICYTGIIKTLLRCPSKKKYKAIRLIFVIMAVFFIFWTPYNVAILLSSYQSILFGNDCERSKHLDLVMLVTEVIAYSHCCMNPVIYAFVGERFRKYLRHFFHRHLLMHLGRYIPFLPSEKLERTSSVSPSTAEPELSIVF

[4] = biological target: WT CXCR4 C-terminally fused to SmBiT (human) (UniProt P61073)
[5] = biological target: T3, WT CCR3 C-terminally fused to SmBiT (human) (UniProt P51677)
T3 sequence: T2 sequence

## CCL3 (from UniProt P10147 24-92) (ligand; in M (unit assumed))
[1]
  EC50 of β-arrestin-1 recruitment to the receptor (NanoBiT, HEK293T, agonist mode) (M (inferred, not given)): 4.12e-08

## CCL4 (from UniProt P13236 24-92) (ligand; in M (unit assumed))
[1]
  EC50 of β-arrestin-1 recruitment to the receptor (NanoBiT, HEK293T, agonist mode) (M (inferred, not given)): 1.45e-07

## CCL5 (from UniProt P13501 24-91) (ligand)
[1]
  β-arrestin-1 recruitment to the receptor (NanoBiT, HEK293T, agonist mode): mean peak activity, no single EC50 (fold untreated): 16.5

## CCL28 ∆1 (∆S) (ligand)
[2]
  EC50 of calcium flux in Chem-1 cells expressing the receptor (row labelled WT CCR3 in the sheet, taken as CCR10): 170 nM

## CCL28 ∆1 (∆S) (ligand; in M (unit assumed))
[3]
  EC50 of calcium flux in Chem-1 cells expressing the receptor (M (inferred, not given)): 1.72e-07

## CCL28 ∆2 (∆SE) (ligand)
[2]
  EC50 of calcium flux in Chem-1 cells expressing the receptor (row labelled WT CCR3 in the sheet, taken as CCR10): 29 nM

## CCL28 ∆2 (∆SE) (ligand; in M (unit assumed))
[3]
  EC50 of calcium flux in Chem-1 cells expressing the receptor (M (inferred, not given)): 5.46e-08

## CCL28 ∆3 (∆SEA) (ligand)
[2]
  EC50 of calcium flux in Chem-1 cells expressing the receptor (row labelled WT CCR3 in the sheet, taken as CCR10): 32 nM

## CCL28 ∆3 (∆SEA) (ligand; in M (unit assumed))
[3]
  EC50 of calcium flux in Chem-1 cells expressing the receptor (M (inferred, not given)): 5.22e-08

## CCL28 ∆4 (∆SEAI) (ligand)
[2]
  EC50 of calcium flux in Chem-1 cells expressing the receptor (row labelled WT CCR3 in the sheet, taken as CCR10): 390 nM

## CCL28 ∆4 (∆SEAI) (ligand; in M (unit assumed))
[3]
  EC50 of calcium flux in Chem-1 cells expressing the receptor (M (inferred, not given)): 2.79e-08

## CXCL12 (from UniProt P48061 22-93) (ligand)
[4]
  EC50 of β-arrestin-1 recruitment to the receptor (NanoBiT, HEK293T, agonist mode): 1.41 nM

## vMIP-II K10T (ligand)
[5]
  EC50 of β-arrestin-1 recruitment to CCR3 (NanoBiT, HEK293T, agonist mode) (M (inferred, not given)): 5.84e-10

## vMIP-II L13F (ligand)
[5]
  EC50 of β-arrestin-1 recruitment to CCR3 (NanoBiT, HEK293T, agonist mode) (M (inferred, not given)): 5.34e-10

## vMIP-II R7I (ligand)
[5]
  EC50 of β-arrestin-1 recruitment to CCR3 (NanoBiT, HEK293T, agonist mode) (M (inferred, not given)): 3.79e-10

## vMIP-II R7I/K10T/L13F (ligand)
[5]
  EC50 of β-arrestin-1 recruitment to CCR3 (NanoBiT, HEK293T, agonist mode) (M (inferred, not given)): 1.11e-09
[1]
  EC50 of β-arrestin-1 recruitment to CCR5 (NanoBiT, HEK293T, agonist mode) (M (inferred, not given)): 1.08e-07

B1: viral macrophage inflammatory protein II (vMIP-II) (ligand)
chain: GDTLGASWHRPDKCCLGYQKRPLPQVLLSSWYPTSQLCSKPGVIFLTKRGRQVCADKSKDWVKKLMQQLPVTAR
[5]
  EC50 of β-arrestin-1 recruitment to CCR3 (NanoBiT, HEK293T, agonist mode) (M (inferred, not given)): 1.35e-09

B2: WT CCL28 (ligand)
chain: SEAILPIASSCCTEVSHHISRRLLERVNMCRIQRADGDCDLAAVILHVKRRRICVSPHNHTVKQWMKVQAAKKNGKGNVCHRKKHHGKRNSNRAHQGKHETYGHKTPY
[2]
  EC50 of calcium flux in Chem-1 cells expressing the receptor (row labelled WT CCR3 in the sheet, taken as CCR10): 230 nM
[3]
  EC50 of calcium flux in Chem-1 cells expressing the receptor (M (inferred, not given)): 1.42e-07
